Here are results for ten molecules from PMC6247239 (Protein Science : A Publication of the Protein Society, 2018).

B1: FtsZ (natural protein)
chain: MFEPMELTNDAVIKVIGVGGGGGNAVEHMVRERIEGVEFFAVNTDAQALRKTAVGQTIQIGSGITKGLGAGANPEVGRNAADEDRDALRAALEGADMVFIAAGMGGGTGTGAAPVVAEVAKDLGILTVAVVTKPFNFEGKKRMAFAEQGITELSKHVDSLITIPNDKLLKVLGRGISLLDAFGAANDVLKGAVQGIAELITRPGLMNVDFADVRTVMSEMGYAMMGSGVASGEDRAEEAAEMAISSPLLEDIDLSGARGVLVNITAGFDLRLDEFETVGNTIRAFASDNATVVIGTSLDPDMNDELRVTVVATGIGMDKRPEITLVTNKQVQQPVMDRYQQHGMAPLTQEQKPVAKVVNDNAPQTAKEPDYLDIPAFLRKQAD

The target of data set [1] is procaspase-2 phosphorylated at S139 and S164 (human) (UniProt P42575). As to the kind of experiment: fluorescence polarisation + native gel or EMSA + SEC + AUC. On the technique in general: Fluorescence polarisation rises when a labelled molecule tumbles more slowly, as on binding a larger partner.
Data set [2] addresses BECN1 coiled-coil domain (Homo sapiens) (UniProt Q14457). The settings on record: cited from earlier work.
For data set [3], the target named is PBP2a (Staphylococcus aureus (MRSA)).
Data set [4] addresses Beclin-1 lacking the BARA domain (human).
Another data set deals with Ras (UniProt P01112).
Data set [5] has as its target radical-generating subunit of the class I ribonucleotide reductase of Leeuwenhoekiella blandensis (Leeuwenhoekiella blandensis). As to the kind of experiment: multi-detection SEC, GEMMA, DLS.
For a further data set, the target named is T1, FtsA (Escherichia coli, UniProt P0ABH0 1-420).
T1 sequence: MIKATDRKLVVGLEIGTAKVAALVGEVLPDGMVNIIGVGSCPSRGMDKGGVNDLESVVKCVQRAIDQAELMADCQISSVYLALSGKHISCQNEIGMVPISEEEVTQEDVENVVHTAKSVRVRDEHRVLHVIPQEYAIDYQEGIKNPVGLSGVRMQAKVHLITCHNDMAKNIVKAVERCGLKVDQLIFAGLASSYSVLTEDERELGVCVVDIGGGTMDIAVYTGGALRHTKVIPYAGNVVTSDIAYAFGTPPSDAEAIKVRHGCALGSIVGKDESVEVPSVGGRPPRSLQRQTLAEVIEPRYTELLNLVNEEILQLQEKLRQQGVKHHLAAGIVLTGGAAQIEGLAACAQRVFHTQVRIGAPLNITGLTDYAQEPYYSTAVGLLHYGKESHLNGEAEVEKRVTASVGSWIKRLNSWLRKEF
Put plainly: co-sedimentation.

Data set [6] concerns the molecule itself. As to the kind of experiment: SEC + other: dynamic light scattering, HDX-MS, spectroscopy.
The target in the data set “FtsZ” is B1. As to the kind of experiment: co-sedimentation.
The data set “crystal structure” deals with the molecule itself. As to the kind of experiment: crystal structure.

Sequence of procaspase-2 phosphorylated at S139 and S164 (human) (P42575 whole entry, the tested form may be a part): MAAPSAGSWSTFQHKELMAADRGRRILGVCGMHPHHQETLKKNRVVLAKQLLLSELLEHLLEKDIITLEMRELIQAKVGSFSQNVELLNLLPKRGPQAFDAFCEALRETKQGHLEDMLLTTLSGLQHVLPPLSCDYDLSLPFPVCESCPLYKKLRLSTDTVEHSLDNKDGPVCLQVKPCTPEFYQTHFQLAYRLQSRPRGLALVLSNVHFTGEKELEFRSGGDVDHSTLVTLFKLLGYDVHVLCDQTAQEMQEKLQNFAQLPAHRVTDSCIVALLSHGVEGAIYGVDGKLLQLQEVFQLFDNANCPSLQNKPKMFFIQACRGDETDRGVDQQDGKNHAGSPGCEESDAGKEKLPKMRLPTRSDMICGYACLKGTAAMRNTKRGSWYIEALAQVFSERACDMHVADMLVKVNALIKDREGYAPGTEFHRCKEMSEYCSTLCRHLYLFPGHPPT

As usually defined, the stoichiometry N is the number of molecules, sites or subunits per partner or assembly. “14-3-3 protein (from UniProt P63104 1-245) (natural protein)”: the stoichiometry N in data set [1] was determined as 1. As usually defined, the Kd is the constant that tells how readily two partners part at equilibrium. “BECN1 coiled-coil domain (from UniProt Q14457)”: the Kd in data set [2] was 48 µM. BLIP-II N50A:Y113H (natural protein): the Kd in [3] came out at 0.05 µM.

In the case of “Beclin-1 lacking the BARA domain (domain or fragment)”, the fold weaker homodimer KD than the full-length protein in data set [4] worked out at 3.5 fold. For “Ras (from UniProt P01112 1-189) (natural protein)”, the percent of the Ras population forming dimers with Ras was less than 10%.

In [5], “radical-generating subunit of the class I ribonucleotide reductase of Leeuwenhoekiella blandensis (enzyme)” showed a stoichiometry N of 4. B1: in the data set with FtsA, the binding result is reported as “binds”.

B2: human glutathione transferase M1a-1a (enzyme)
chain: MPMILGYWDIRGLAHAIRLLLEYTDSSYEEKKYTMGDAPDYDRSQWLNEKFKLGLDFPNLPYLIDGAHKITQSNAILCYIARKHNLCGETEEEKIRVDILENQTMDNHMQLGMICYNPEFEKLKPKYLEELPEKLKLYSEFLGKRPWFAGNKITFVDFLVYDVLDLHRIFEPKCLDAFPNLKDFISRFEGLEKISAYMKSSRFLPRPVFSKMAVWGNK
On to B2, for which the “stoichiometry N” value in data set [6] was determined as 2.

B3: MinC (natural protein)
chain: MSNTPIELKGSSFTLSVVHLHEAEPKVIHQALEDKIAQAPAFLKHAPVVLNVSALEDPVNWSAMHKAVSATGLRVIGVSGCKDAQLKAEIEKMGLPILTEGKEKAPRPAPTPQAPAQNTTPVTKTRLIDTPVRSGQRIYAPQCDLIVTSHVSAGAELIADGNIHVYGMMRGRALAGASGDRETQIFCTNLMAELVSIAGEYWLSDQIPAEFYGKAARLQLVENALTVQPLN
In the case of B3, in the data set with FtsZ, the binding result is “binds”.

B4: SNX16 PX-CC unit (domain or fragment)
chain: DRPSTPTILGYEVMEERAKFTVYKILVKKTPEESWVVFRRYTDFSRLNDKLKEMFPGFRLALPPKRWFKDNYNADFLEDRQLGLQAFLQNLVAHKDIANCLAVREFLCLDDPPGPFDSLEESRAFCETLEETNYRLQKELLEKQKEMESLKKLLSEKQLHIDTLENRIRTLSLEPEESLDVSETEGEQILKVESSALEVDQDVLDEESRADNKPCLSFSEPENAVSEIEVAEVAYDAEED
Turning to B4, the “stoichiometry N” value in the data set “crystal structure” stood at 2.
